Experimental data published in paper PMC3824023.

Target: microtubules polymerised from bovine brain tubulin (bovine) (UniProt Q6B856)
Chain of UniProt Q6B856 (Q6B856 whole entry, looked up): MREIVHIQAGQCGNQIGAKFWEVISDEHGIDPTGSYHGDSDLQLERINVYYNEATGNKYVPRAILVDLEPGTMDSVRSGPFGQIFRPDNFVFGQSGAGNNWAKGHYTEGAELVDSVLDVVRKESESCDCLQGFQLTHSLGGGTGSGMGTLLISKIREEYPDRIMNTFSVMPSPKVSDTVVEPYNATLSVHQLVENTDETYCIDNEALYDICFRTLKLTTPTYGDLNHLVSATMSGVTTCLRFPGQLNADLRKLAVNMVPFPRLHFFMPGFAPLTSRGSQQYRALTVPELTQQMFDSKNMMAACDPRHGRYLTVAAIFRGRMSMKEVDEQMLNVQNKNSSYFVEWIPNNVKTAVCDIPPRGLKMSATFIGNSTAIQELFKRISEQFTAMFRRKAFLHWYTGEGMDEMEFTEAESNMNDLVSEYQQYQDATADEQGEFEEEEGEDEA

K (0.5, MT) of MT-stimulated ATPase, KIF17M-490 alone: 1.3 µM
K (0.5, MT) of MT-stimulated ATPase, KIF17M-490 with EB1 (2x molar ratio): 0.7 µM
K (0.5, MT) of MT-stimulated ATPase, KIF17M-490 with equimolar KIF17-tail: 0.4 µM
B1: KIF17M-490 (C-terminally truncated KIF17, amino acids 1-490: motor, neck and first coiled-coil domains) (domain or fragment)
chain: MASEAVKVVVRCRPMNQRERELRCQPVVTVDCARAQCCIQNPGAADEPPKQFTFDGAYHVDHVTEQIYNEIAYPLVEGVTEGYNGTIFAYGQTGSGKSFTMQGLPDPPSQRGIIPRAFEHVFESVQCAENTKFLVRASYLEIYNEDVRDLLGADTKQKLELKEHPEKGVYVKGLSMHTVHSVAQCEHIMETGWKNRSVGYTLMNKDSSRSHSIFTISIEMSAVDERGKDHLRAGKLNLVDLAGSERQSKTGATGERLKEATKINLSLSALGNVISALVDGRCKHVPYRDSKLTRLLQDSLGGNTKTLMVACLSPADNNYDETLSTLRYANRAKNIRNKPRINEDPKDALLREYQEEIKKLKAILTQQMSPSSLSALLSRQVPPDPVQVEEKLLPQPVIQHDVEAEKQLIREEYEERLARLKADYKAEQESRARLEEDITAMRNSYDVRLSTLEENLRKETEAVLQVGVLYKAEVMSRAEFASSAEYPPAF
